Article PMC3959648, “Screening protein – Single stranded RNA complexes by NMR spectroscopy for structure determination☆”

Key:
Conditions in all cases: protein: recombinant; tags: N-terminal His tag removed by TEV
[1] = biological target: T1, T-STAR KH-QUA2 (UniProt O75525 50-183); assay: NMR 15N-1H HSQC CSP; T-STAR KH: 10 mM Tris-HCl pH 7 (also given as pH 6.5, 50 mM NaCl, 30 C); Sam68 KH: 20 mM sodium phosphate pH 7.0, 50 mM NaCl, 20 C; about 0.2 mM protein, protein:RNA 1:0.5 and 1:1
T1 sequence: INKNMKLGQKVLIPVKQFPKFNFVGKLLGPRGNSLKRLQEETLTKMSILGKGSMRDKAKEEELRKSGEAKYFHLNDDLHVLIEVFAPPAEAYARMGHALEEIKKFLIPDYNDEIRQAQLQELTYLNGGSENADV

[2] = biological target: T2, T-STAR KH (UniProt O75525 50-160); assay: NMR 15N-1H HSQC CSP; fast exchange; T-STAR KH: 10 mM Tris-HCl pH 7 (also given as pH 6.5, 50 mM NaCl, 30 C); Sam68 KH: 20 mM sodium phosphate pH 7.0, 50 mM NaCl, 20 C; about 0.2 mM protein, protein:RNA 1:0.5 and 1:1
T2 sequence: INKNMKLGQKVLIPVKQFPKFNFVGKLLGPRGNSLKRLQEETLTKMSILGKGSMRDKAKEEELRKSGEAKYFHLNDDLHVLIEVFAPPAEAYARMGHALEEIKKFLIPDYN

[3] = biological target: T3, Sam68 KH (UniProt Q07666 150-260); assay: NMR 15N-1H HSQC CSP; slow exchange; strong affinity; T-STAR KH: 10 mM Tris-HCl pH 7 (also given as pH 6.5, 50 mM NaCl, 30 C); Sam68 KH: 20 mM sodium phosphate pH 7.0, 50 mM NaCl, 20 C; about 0.2 mM protein, protein:RNA 1:0.5 and 1:1
T3 sequence (Q07666 150-260): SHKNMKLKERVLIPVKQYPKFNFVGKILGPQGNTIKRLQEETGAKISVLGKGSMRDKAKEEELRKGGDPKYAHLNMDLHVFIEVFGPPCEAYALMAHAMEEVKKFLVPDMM

[4] = biological target: T2, T-STAR KH; assay: NMR 15N-1H HSQC CSP; fast to intermediate exchange; higher affinity than AAAUAA; T-STAR KH: 10 mM Tris-HCl pH 7 (also given as pH 6.5, 50 mM NaCl, 30 C); Sam68 KH: 20 mM sodium phosphate pH 7.0, 50 mM NaCl, 20 C; about 0.2 mM protein, protein:RNA 1:0.5 and 1:1
[5] = biological target: T3, Sam68 KH; assay: NMR 15N-1H HSQC CSP; T-STAR KH: 10 mM Tris-HCl pH 7 (also given as pH 6.5, 50 mM NaCl, 30 C); Sam68 KH: 20 mM sodium phosphate pH 7.0, 50 mM NaCl, 20 C; about 0.2 mM protein, protein:RNA 1:0.5 and 1:1
[6] = biological target: T2, T-STAR KH; assay: NMR TOCSY; 100% D2O; chemical exchange, possibly multiple registers; T-STAR KH: 10 mM Tris-HCl pH 7 (also given as pH 6.5, 50 mM NaCl, 30 C); Sam68 KH: 20 mM sodium phosphate pH 7.0, 50 mM NaCl, 20 C; about 0.2 mM protein, protein:RNA 1:0.5 and 1:1

B1: AAAUAA (ssRNA)
RNA: AAAUAA
- binding result [1]: binds
- binding result [2]: binds

B2: AUUAAA (ssRNA)
RNA: AUUAAA
- binding result [3]: binds

B3: AAAAAA (polyA 6mer) (ssRNA)
RNA: AAAAAA
- binding result [4]: binds

B4: UUUUUU (polyU 6mer) (ssRNA)
RNA: UUUUUU
- binding result [5]: no binding

B5: UAAAUAAUU (ssRNA)
RNA: UAAAUAAUU
- binding result [6]: binds

B6: UAAAAUUUUU (ssRNA)
RNA: UAAAAUUUUU
- binding result [6]: binds
